The results in this text go back to paper doi:10.1101/2020.02.13.948224 (bioRxiv, 2020).

One series addresses mouse RBPj (aa 53-474) (mouse, UniProt P31266 53-474). The experiment in a line: native gel or EMSA. In general terms: In EMSA bound probe runs differently from free probe, usually more slowly.
The series “native gel or EMSA” concerns the molecule itself. In words: native gel or EMSA.

Numbering of substitutions follows the chain as printed.

mouse RBPj (aa 53-474), sequence (P31266 53-474): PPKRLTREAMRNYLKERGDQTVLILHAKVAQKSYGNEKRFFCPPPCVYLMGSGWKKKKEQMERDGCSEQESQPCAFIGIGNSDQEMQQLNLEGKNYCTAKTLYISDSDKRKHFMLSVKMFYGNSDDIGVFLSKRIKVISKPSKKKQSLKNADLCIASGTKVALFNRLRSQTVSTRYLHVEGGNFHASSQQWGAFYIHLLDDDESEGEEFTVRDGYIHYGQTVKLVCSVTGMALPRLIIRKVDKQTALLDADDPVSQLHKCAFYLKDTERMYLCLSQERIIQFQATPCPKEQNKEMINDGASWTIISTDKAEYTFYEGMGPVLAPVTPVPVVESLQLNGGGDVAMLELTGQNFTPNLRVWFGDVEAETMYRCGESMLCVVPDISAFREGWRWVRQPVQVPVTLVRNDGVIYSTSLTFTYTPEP

B1: human SMT3-MAML1 (aa 1-280) (domain or fragment, UniProt Q92585 1-280, looked up)
chain: MVLPTCPMAEFALPRHSAVMERLRRRIELCRRHHSTCEARYEAVSPERLELERQHTFALHQRCIQAKAKRAGKHRQPPAATAPAPAAPAPRLDAADGPEHGRPATHLHDTVKRNLDSATSPQNGDQQNGYGDLFPGHKKTRREAPLGVAISSNGLPPASPLGQSDKPSGADALQSSGKHSLGLDSLNKKRLADSSLHLNGGSNPSESFPLSLNKELKQEPVEDLPCMITGTVGSISQSNLMPDLNLNEQEWKELIEELNRSVPDEDMKDLFNEDFEEKKD
On to B1, for which, in the series with mouse RBPj (aa 53-474), the binding result is listed as “binds”.

B2: mouse N1ICD (aa 1744-2113) (domain or fragment, UniProt Q01705 1744-2113, looked up)
chain: VLLSRKRRRQHGQLWFPEGFKVSEASKKKRREPLGEDSVGLKPLKNASDGALMDDNQNEWGDEDLETKKFRFEEPVVLPDLSDQTDHRQWTQQHLDAADLRMSAMAPTPPQGEVDADCMDVNVRGPDGFTPLMIASCSGGGLETGNSEEEEDAPAVISDFIYQGASLHNQTDRTGETALHLAARYSRSDAAKRLLEASADANIQDNMGRTPLHAAVSADAQGVFQILLRNRATDLDARMHDGTTPLILAARLAVEGMLEDLINSHADVNAVDDLGKSALHWAAAVNNVDAAVVLLKNGANKDMQNNKEETPLFLAAREGSYETAKVLLDHFANRDITDHMDRLPRDIAQERMHHDIVRLLDEYNLVRSPQ
In the case of B2, the binding result in the series “native gel or EMSA” and with mouse RBPj (aa 53-474) was “binds” in each case.

B3: mouse N1^RAICD (aa 1744-2113) (domain or fragment, UniProt Q01705 1744-2113, looked up)
chain: B2 chain with R231A
B3: the binding result with mouse RBPj (aa 53-474) was “binds”.
